For data set [1], the system named is metastatic androgen-independent prostate cancer. As to the kind of experiment: Phase 1 dose-escalating trial of DM1 conjugated deJ591. The class given is in vivo, human. The protocol:
Based upon emerging clinical safety and PK, repeat dosing at four week intervals was subsequently permitted.
DLT is defined as the occurrence of one or more of the following:
• Grade 4 thrombocytopenia (platelet count <10,000/mm3) • Requirement for platelet transfusion and/or other methods to increase platelet count • Febrile neutropenia (ANC <1000/mm^3 concurrent with a temperature >38.5° C.). (Per the Infection/Febrile Neutropenia subsection of the NCI CTC version 2.0, febrile neutropenia is, by definition, a >Grade 3 toxicity) • Grade 4 neutropenia without fever of >7 days duration • Grade 3 neutropenia requiring granulocyte colony-stimulating factor (G-CSF) administration • Grade 4 anemia (hemoglobin <6.5 g/dL) • Grade 3 anemia (hemoglobin 6.5-<8.0 g/dL) in a subject receiving EpogenÒNon-hematologic • Any Grade 3 non-hematologic toxicity considered by the investigator to be possibly related to study drug MTD is defined as the highest dose level with an observed incidence of DLT in no more than 1 out of 6 subjects.
There will be a 4 week (28 days±2 days) interval between dose administrations. […] Subjects will receive the same dose administered on day 1 (Visit 1) of their first infusion.
The starting dose is 18 mg/m2. Subjects will be followed for 3 weeks after the first dose to determine dose escalation. Dose escalation will continue until DLT and MTD are determined. Two phases of dose escalation will be used. In the first phase, one subject will be enrolled at each dose level. In the second phase, three subjects will be enrolled at each dose level. The planned dose increments are 80%, 60%, 40%, 30%, 30%, 30%, 30%, 30% and 30% above the previous dose, with a total of ten dose levels planned. All dose increments will be adjusted to 30% above the previous dose if DLT or two or more occurrences of non dose-limiting grade 2 or greater drug-related toxicity (NDLT) are observed in subjects treated at any of the first three dose levels. Non dose-limiting grade 2 or greater toxicity includes grade 2 or 3 hematologic toxicity and grade 2 non-hematologic toxicity. Drug-related toxicity is toxicity considered by the investigator to be related to study drug. In the first phase, one subject will be enrolled at the lowest dose level and observed for 3 weeks to ensure that there are no significant adverse events. If no DLT or NDLT is observed during the 3 week observation period, dose escalation will continue and a new subject will be enrolled at the next predefined dose level. Single subjects will continue to be enrolled and observed at sequentially increasing dose levels until one subject experiences a DLT or a NDLT. If DLT is observed in a single subject at any dose level in the first phase, the second phase will begin, where 3 subjects per dose level will be enrolled. The dose assignment for the first subject enrolled in the second phase will be one dose level lower than the dose level at which DLT is observed. If NDLT is observed in the subject treated at any of the first three dose levels, dose escalation will stop and two more subjects will be enrolled at the current dose level. Subsequent dose escalation and enrollment will be determined by the number and grade of toxicities observed in these two additional subjects. If DLT or NDLT is not observed, the first phase will continue. Dose escalation will proceed to the next predefined dose level, with one subject enrolled at that dose level. If DLT is observed in one subject, three subjects will be enrolled at the current dose level and the second phase will begin. The dose increments for subsequent dose escalations will be 30% for the remainder of the study. If DLT is observed in both subjects, dose escalation will stop and three subjects will be enrolled at the previous dose level, marking the beginning of the second phase. The previous dose level will be evaluated as potential MTD. No further dose escalation will occur. […]

The subject of another data set is PSMA-negative cells. The conditions noted are these: read-out: Non-specific in vitro cytotoxicity towards PSMA-negative cells, IC50.

Read-outs that look alike come from different tables or passages of the source.

What is called IC50 is the point on the concentration scale where inhibition reaches its midpoint. For the substance “deJ591-DM1: deJ591 conjugated via SPP disulfide linker to the maytansinoid DM1, DM1/antibody ratio about 3.5”, in data set [1] (18 to 343 mg/m^2), the tolerability result was “well-tolerated in the majority of patients”. Besides, the MTD in data set [1] (23 patients, 18 to 343 mg/m^2) is listed as no less than 343 mg/m^2. Besides, the DLT entry in data set [1] (highest dose level 343 mg/m^2) was “Only one DLT, an uncomplicated febrile neutropenia”. Moreover, in data set [1] (in vivo), the “PK of antibody related analytes (J591-DM1, Total J591 and free J591)” value is reported as “typical of monoclonal antibodies”; the “Plasma levels of DM1-SH” value is listed as “detectable”; the anti-antibodies entry is on record as “No anti-antibodies against DM1 conjugated deJ591, deJ591 or DM1 were detected”. Moreover, in data set [1] (one patient, 264 mg/m^2), the disease response result is reported as “PR by RECIST criteria” and the “durable decrease in PSA” value was 70%. In addition, the “sustained PSA decline” value in data set [1] (one patient, 343 mg/m^2) is on record as greater than 50%. Further, in the data set on PSMA-negative cells (listed as 1552-60S), the IC50 is 13.6 nM. Moreover, in the data set with PSMA-negative cells (listed as N067020302), the concentration for half-maximal inhibition (IC50) is 17.1 nM.

The values above are taken from patent publication US7666414B2, “Methods for treating prostate cancer using modified antibodies to prostate-specific membrane antigen” (Cornell Research Foundation, Inc., priority 2001, dated 2010).
